Reference: article PMC12338573 (bioRxiv, 2025)

Biological target: the molecule itself
Assay: SEC-MALS

B1: hFcµ-tFcµ-chi3 with Cys414 mutated (domain or fragment)
chain: TAIRVFAIPPSFASIFLTKSTKLTCLVTDLTTYDSVTISWTRQNGEAVKTHTNISESHPNATFSAVGEASIAEDDWNSGERFTCTVTHTDLPSPLKQTISRPKGVALHRPDVYLLPPAREQLNLRESATITCLVTGFSPADVFVQWMQRGQPLSPEKYVTSAPMPEPQAPGRYFAHSILTVSEEEWNTGETYTCVVAHEALPNRVTERTVDRTSNQPNLVNLSLNVPQRCMAQ
With B1 the “pentamer:monomer ratio” value was 14%.
